This note sets out measurements from US20230201365A1, “MODIFIED CD20 ANTIBODIES AND USES THEREOF” (Bright Peak Therapeutics AG, priority 2021, published 2023).

The target in one experiment is T1, hu FcγRI (CD64) (Homo sapiens, UniProt P12314).
T1 construct: purchased R&D Systems 1257-FC-050
The experiment is described as follows: Fc gamma receptor binding ELISA. On the procedure: (§1) To analyze Fc Receptor gamma binding test molecules were diluted to 2.5 ug/ml in PBS and plates were coated overnight at 4° C. The next day the assay plates were washed four times with 100 ul of wash buffer: PBS+0.02% Tween 20 and blocked with PBS+1% BSA, for one hour at 37° C., with shaking at 600 RPM. The blocked plates were then washed four times with 100 ul wash buffer. Diluted FcRgamma (Reagents listed, below) was freshly diluted in wash buffer. Plates were then incubated with 25 ul of diluted Fc for two hours with shaking at 600 RPMs, then washed with 100 ul wash buffer, four times. The wells were then incubated with 25 ul of either 1:500 diluted streptavidin-Horseradish peroxidase (HRP) for detection of human FcgR or 1:500 diluted Anti-HIS tag antibody-HRP in wash buffer. The HPR detection molecules were incubated in the wells at room temperature for one hour with shaking at 600 RPMs. Plate wells were washed with 100 ul of wash buffer, four times. Plates were detected using the chromogenic HRP substrate 3,3′,5,5;-tetramethylbenzidine (TMB). Samples were read using a spectrophotometer plate reader with OD set to 450 nm.
(In general: An ELISA detects its analyte on a solid surface through an enzyme-linked reagent.)

A further experiment deals with T2, hu FcγRIII (CD16a) (Homo sapiens, UniProt P08637).
T2 construct: purchased R&D Systems 4325-FC-050
T2 sequence (P08637 17-254): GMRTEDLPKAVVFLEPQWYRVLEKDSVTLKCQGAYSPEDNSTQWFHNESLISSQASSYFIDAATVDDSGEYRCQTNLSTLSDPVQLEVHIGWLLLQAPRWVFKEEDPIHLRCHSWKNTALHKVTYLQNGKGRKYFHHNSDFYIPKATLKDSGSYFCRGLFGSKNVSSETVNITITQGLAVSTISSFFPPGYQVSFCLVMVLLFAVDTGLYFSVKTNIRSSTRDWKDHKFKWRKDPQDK
In words: Fc gamma receptor binding ELISA. On the procedure: as §1

In the next experiment the target is T3, mu FcγRIII (CD16) (Mus musculus, UniProt P08508).
T3 construct: purchased R&D Systems 1960-FC-050
T3 sequence (P08508 31-261): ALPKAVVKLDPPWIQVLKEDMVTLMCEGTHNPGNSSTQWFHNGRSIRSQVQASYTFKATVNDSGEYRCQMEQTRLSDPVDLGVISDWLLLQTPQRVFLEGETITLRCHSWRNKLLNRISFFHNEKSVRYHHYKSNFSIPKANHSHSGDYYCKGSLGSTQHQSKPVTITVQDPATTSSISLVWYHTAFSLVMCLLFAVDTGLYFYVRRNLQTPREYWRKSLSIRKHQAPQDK
In words: Fc gamma receptor binding ELISA. The procedure:
as §1

In another experiment the target is T4, hu FcγRIIb (CD32b) (Homo sapiens, UniProt P31994).
T4 construct: Avi-tag; purchased R&D Systems AVI1875-050
T4 sequence (P31994 43-310): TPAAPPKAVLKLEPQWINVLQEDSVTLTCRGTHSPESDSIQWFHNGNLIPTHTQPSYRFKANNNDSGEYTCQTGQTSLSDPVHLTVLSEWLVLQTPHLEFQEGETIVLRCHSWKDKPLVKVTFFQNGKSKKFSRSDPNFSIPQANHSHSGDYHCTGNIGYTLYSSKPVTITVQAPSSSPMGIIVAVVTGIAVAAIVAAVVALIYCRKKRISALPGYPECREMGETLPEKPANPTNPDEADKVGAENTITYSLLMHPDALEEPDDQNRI
In words: Fc gamma receptor binding ELISA. On the procedure: as §1

A further experiment addresses T5, mu FcγRIV (CD16-2) (Mus musculus, UniProt A0A0B4J1G0).
T5 construct: purchased R&D Systems 1974-CD-050
T5 sequence (A0A0B4J1G0 21-249): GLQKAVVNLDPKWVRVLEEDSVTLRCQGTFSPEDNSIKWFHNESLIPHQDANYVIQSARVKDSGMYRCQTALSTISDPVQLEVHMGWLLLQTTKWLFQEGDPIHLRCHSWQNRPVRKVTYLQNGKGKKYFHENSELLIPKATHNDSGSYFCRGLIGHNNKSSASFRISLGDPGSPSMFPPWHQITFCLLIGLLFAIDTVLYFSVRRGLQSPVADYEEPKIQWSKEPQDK
The experiment is described as follows: Fc gamma receptor binding ELISA. Particulars: mu FcγRIV (CD16-2) ELISA. The procedure:
as §1

In another experiment the target is T6, mu FcγRI (CD64) (Mus musculus, UniProt P26151).
T6 construct: purchased R&D Systems 2074-FC-050
T6 sequence (P26151 25-404): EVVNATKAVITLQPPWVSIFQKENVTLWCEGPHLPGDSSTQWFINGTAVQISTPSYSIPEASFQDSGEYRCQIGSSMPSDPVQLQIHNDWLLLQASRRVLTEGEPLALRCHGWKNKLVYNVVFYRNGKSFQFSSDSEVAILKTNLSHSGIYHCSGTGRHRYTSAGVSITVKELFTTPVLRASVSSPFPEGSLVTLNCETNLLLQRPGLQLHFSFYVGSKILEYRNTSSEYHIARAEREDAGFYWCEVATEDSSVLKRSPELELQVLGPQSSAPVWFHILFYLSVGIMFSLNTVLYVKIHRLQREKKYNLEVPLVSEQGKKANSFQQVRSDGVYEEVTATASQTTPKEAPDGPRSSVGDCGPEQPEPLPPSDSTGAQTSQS
The experiment is described as follows: Fc gamma receptor binding ELISA. The procedure: as §1

The test system of the next experiment is B cells. In words: B cell depletion in hCD20 transgenic C57BL/6 mice. It counts as in vivo. Particulars: 5 mg/kg single intraperitoneal injection on Day 0, FIG. 7A.
A further experiment concerns the target T7, hu CD20 (Homo sapiens, UniProt P11836).
T7 sequence (P11836 1-297): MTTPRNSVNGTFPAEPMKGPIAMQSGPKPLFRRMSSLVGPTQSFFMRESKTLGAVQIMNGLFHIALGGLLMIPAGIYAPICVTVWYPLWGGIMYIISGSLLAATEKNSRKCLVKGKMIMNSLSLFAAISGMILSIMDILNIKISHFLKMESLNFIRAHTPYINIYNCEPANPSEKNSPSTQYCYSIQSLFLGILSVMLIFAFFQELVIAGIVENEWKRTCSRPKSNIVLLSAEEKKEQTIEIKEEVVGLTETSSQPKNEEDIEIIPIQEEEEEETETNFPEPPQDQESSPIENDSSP
The experiment is described as follows: CD20 binding ELISA. On the procedure:
The interaction of the unmodified and of conjugated anti-CD20 antibodies with CD20 were measured by ELISA assay. […] Plates were washed four times with 100 μl of PBS-0.02% Tween20. and blocked with 25 μl of PBS-0.02% Tween20-1% BSA at 37° C. with shaking at 600 RPM, for 1 h. Plates were then washed four times with 100 μl of PBS-0.02% Tween20. […] Plates were then washed four times with 100 μl of PBS-0.02% Tween20. 25 ul of Streptavidin-Horseradish peroxidase (#RABHRP3, Merck, Buchs, Switzerland) diluted at 1:500 into PBS-0.02% Tween20-0.1% BSA were added to each well and incubated at room temperature for 30 min. Plates were then washed four times with 100 μl of PBS-0.02% Tween20. […] ELISA signal is then measured at 450 nm on an ENSPIRE® plate reader from Perkin Elmer (Schwerzenbach, Switzerland).

The next experiment deals with Raji cells. The experiment is described as follows: Antibody-dependent cell-mediated cytotoxicity (ADCC) bioassay. In kind it is cell-based, human. Conditions: 25:1 PBMC:Raji, FIG. 6.
The target in a further experiment is T8, Human FcRn (Homo sapiens, UniProt P55899).
T8 construct: purchased PerkinElmer AL3095C
T8 sequence (P55899 24-297 limits assumed): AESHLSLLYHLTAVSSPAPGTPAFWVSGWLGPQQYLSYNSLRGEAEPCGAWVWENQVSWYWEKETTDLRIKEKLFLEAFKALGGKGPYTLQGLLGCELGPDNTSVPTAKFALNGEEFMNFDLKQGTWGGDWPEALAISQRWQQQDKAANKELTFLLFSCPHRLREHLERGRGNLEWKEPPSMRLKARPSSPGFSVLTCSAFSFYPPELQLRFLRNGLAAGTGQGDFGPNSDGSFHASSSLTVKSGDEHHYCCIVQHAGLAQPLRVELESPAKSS
T8 sequence (P61769 21-119 partner): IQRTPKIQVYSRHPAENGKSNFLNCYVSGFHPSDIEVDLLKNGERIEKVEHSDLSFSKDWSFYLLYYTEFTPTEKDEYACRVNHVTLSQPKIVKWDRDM
The experiment is described as follows: FcRn binding AlphaLISA. Conditions: hu FcRN binding aLISA. The procedure: Human IgG Conjugated Acceptor Beads (2×) and Streptavidin (SA) Donor Beads were diluted to reach final concentrations of 5 μg/ml.
To wells in the assay plates, 10 ul of diluted antibodies, 10 ul of diluted FcRn, 20 ul of human IgG conjugated Acceptor beads, and SA-Donor beads were added.

Broadly, the EC50 is the midpoint of the concentration-response curve.

T1 sequence (P12314 16-374): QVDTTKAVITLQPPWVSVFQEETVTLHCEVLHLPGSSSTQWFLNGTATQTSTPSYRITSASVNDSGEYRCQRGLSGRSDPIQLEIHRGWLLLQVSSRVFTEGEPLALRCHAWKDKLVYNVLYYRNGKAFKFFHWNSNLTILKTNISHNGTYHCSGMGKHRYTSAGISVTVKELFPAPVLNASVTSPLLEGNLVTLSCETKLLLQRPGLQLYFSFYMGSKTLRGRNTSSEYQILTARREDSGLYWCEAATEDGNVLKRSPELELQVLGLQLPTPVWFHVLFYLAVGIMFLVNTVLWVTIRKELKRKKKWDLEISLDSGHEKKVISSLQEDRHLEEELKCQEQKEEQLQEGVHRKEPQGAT
Description for B cells: Animal Groupings and administration: 9 animals were randomly enrolled into three study groups based on the body weight 5 days before administration (day −5). Each group consists of 3 mice. Single doses were administered 5 day post grouping (Day 0).
Sample collection: 100 μL whole blood were collected with anticoagulant (DETA-2K) for flow cytometry. Collection time points: Day −5, Day 6, Day 9, Day 14, and Day 21.
Flow cytometry: Preparation of single cell suspensions: For the treatment of spleen samples, the spleen was transferred to a 35 mm culture dish, and then ground with a sterile syringe tail. The cells were washed and centrifuged at 500 g for 5 min at 4° C. The cell pellet was resuspended with 2 ml of red blood cell lysis buffer and incubated for 5-8 min at room temperature. A volume 10 mL of PBS was added to the cell suspension to stop the lysing, and centrifuged at 500 g for 5 min at 4° C. The cells were counted using a blood cell counting chamber. For the treatment of the blood samples, 100 μL of the blood sample was transferred into a 1.5 mL EP tube. To this, 1.4 mL of red blood cell lysis buffer is added, and mixed by inversion. The lysis is carried out for 5-8 min at room temperature. The lysed blood sample is centrifuge at 500 g for 5 min at 4° C. The resultant cell pellet is resuspended in PBS to the required volume for flow cytometry.
The flow cytometry protocol is as follows. […]
Description for Raji cells: To determine the effectiveness of antiCD20 IL-2 immunoconjugates in activating immune cell function, an ADCC assay was employed. Human peripheral blood mononuclear cells (hPBMC) and target cells (Raji cells expressing HiBiT) were purchased from Promega as a kit (PBMC ADCC Bioassay Kit Raji, # CS3055A17). […] Once the cells recovered cells were counted. Raji cells were suspended at a concentration of 2×10^5 per ml, and PBMCs were suspended at 5×10^6 per ml. The killing assay was conducted in a 96 well U-bottom plate. Cells were seeded at a ratio of 25:1 Effector cell (PBMC):antiCD20 Target cell (Raji). Plates were incubated for 24 hours at 37 C in 5% CO2. Cell mixtures were treated with serial dilutions of immunocytokines to induce ADCC and placed back in the incubator for an additional 24 hours. Tissue culture supernatants from wells were assayed using Nano-Glo® HiBiT Extracellular assay detection kit.

Consider “Anti-CD20 Antibody: parent anti-CD20 antibody biosimilar Rituximab, unconjugated”, for which the EC50 with hu FcγRI (CD64) came out at 0.23 nM; with hu FcγRIII (CD16a) it was 185 nM; in the experiment with mu FcγRIII (CD16) it was 133 nM; in the experiment with hu FcγRIIb (CD32b) it was 880 nM; with mu FcγRIV (CD16-2) it was 20 nM; in the experiment with mu FcγRI (CD64) it was 35 nM. The EC50 with hu CD20 is 0.08 nM; with Human FcRn it was 4 nM. Further, the “depletion of B cells” value with B cells is listed as “substantial ability to deplete B cells”. Further, the “ADCC-targeted cell killing of Raji cells” value in the experiment with Raji cells is listed as “Less cell killing overall”.
